In publication PMC11920050 (Nature Communications, 2025):

Molecular target: the molecule itself
Assay: Western blot of cell lysate under non-denatured or denatured conditions

B1: Flag-EGFP-tagged SPESP1 (equatorial segment protein 1) expressed in CHO-K1 cells (natural protein, mouse, UniProt Q9D5A0 19-399, looked up)
chain: YPTITVLPDEEQNLNHYVHILQNLIMSVPTKEQDLGKKLSSSRTVDSAEPRSLASKVLLTPGLVSAQDVTPESDVLIRPVDETTNSRTRGFTLRRRRTQSTAFWSIRPNNISVVLRTEEPFIEKEPEPELESSRLPTEPEPELEPEPEPVAESRQMSEPEEELVTSTTPNKELTGTSRISSMATQPANTQATRITVTVKTTSTMDVSTDSEDVPQLSGQSEIPSAEDLPGRHSLNTRHEDILKKISNINAEIQQGLLGGNNSPEFKEFIKASREHLKRSLALAAAAEHKLEQMYGSNVFPEGRTSDPDNDMEMIINMLYNSRSKLSDYFNIKRVPSELREKASVVNAELRKILCVDQVEMQSLIKKLLSNNMKILNILNVP
modifications: O-GalNAc glycans (VVA-positive on blot); sites on this construct not stated
- stoichiometry N: 2
